± gives the uncertainty stated by the source.

The nature of this data set: amyloid nucleation score (Sup35N fusion, yeast selection) (log enrichment); library NNK3; higher = more nucleation; inactive = no reads after selection. A digest of the protocol:
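Using DiMSum, nucleation scores were taken as the log enrichment of output over input reads, centred on the mode score of non-aggregating sequences. The input and output reads came from Illumina sequencing of plasmid inserts, with sequences under 100 input reads excluded. The yeast were psi-negative, expressed Sup35N fused to peptides of 20 random codons, were induced with 100 μM copper sulfate for 24 hours, and were grown 7 days at 30°C on medium lacking adenine and uracil.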
LYFNVSTTIAIRIRSYSYRV had an amyloid nucleation score of -0.299 ± 0.62.

Take VLLTVECLFYSS: the amyloid nucleation score result is “inactive”.

On to PFCVMDLSIKWGNMYYFLQT, for which the amyloid nucleation score entry is “inactive”.

In turn, LIAFA displayed an amyloid nucleation score of 2.53 ± 0.069.

DLSREQLGCVVGVQAECMKG: the amyloid nucleation score is 0.37 ± 0.41.

As for ENSIVADTGPAV, the amyloid nucleation score entry was “inactive”.

With HVAKVGTFNWTHNGYDNCFV, the amyloid nucleation score entry was “inactive”.

The substance KFVFSFGSLYSVLTLERVEG had an amyloid nucleation score of 0.388 ± 0.2.

Take WSDWRLIKFNFRRSYLCLLW: the amyloid nucleation score entry was “inactive”.

On to ILVKIVSWVHLKRTVGTDQD, for which the amyloid nucleation score result was “inactive”.

With VNVIDLFGFQPSNRLTGNVR, the amyloid nucleation score result was “inactive”.

In the case of DRNCRLIHYFIQ, the amyloid nucleation score result was “inactive”.

For the substance QSLGVTRFWGLSLLLQNFLP, the amyloid nucleation score result was “inactive”.

Take SNKSHVCYFSIEFVLISGLS: the amyloid nucleation score result is “inactive”.

Regarding GCNEHI, the amyloid nucleation score entry is “inactive”.

As for IWMWLKTQSISRLGTGRTTN, the amyloid nucleation score result was “inactive”.

As to NKFMIGVRMASGTL, the amyloid nucleation score entry is “inactive”.

Turning to RFLLHLML, the amyloid nucleation score was -0.4 ± 0.45.

IWFWKGICLRYTSRKGMNLR came in with an amyloid nucleation score of 1.75 ± 0.11.

Regarding LSIVRAGVRSGNRGELFRCR, the amyloid nucleation score result was “inactive”.

For LCGLSDSYCRA, the amyloid nucleation score result is “inactive”.

As for LDIFKISDTWMFDGQLTHLL, the amyloid nucleation score result was “inactive”.

For GKKDRVRQTYFYMNSYIHW, the amyloid nucleation score came out at 1.65 ± 0.085.

Regarding IFFVRSDAFKFSILSVNASL, the amyloid nucleation score was -0.37 ± 0.56.

On to APIWVFRAYLVFL, for which the amyloid nucleation score entry is “inactive”.

Consider CCWYPYEYIINYASVTSQFP, for which the amyloid nucleation score is 1.56 ± 0.066.

As for IMCYLSITRWKDM, the amyloid nucleation score result was “inactive”.

Consider NWFSSQS, for which the amyloid nucleation score result was “inactive”.

With MPCNVKYSTVCFTA, the amyloid nucleation score entry is “inactive”.

Take SFYEEGFVSYLDIRGIVYGA: the amyloid nucleation score result is “inactive”.

In the case of LCTESFIISR, the amyloid nucleation score entry was “inactive”.

The substance NTCSCTGFTFAAGDV returned an amyloid nucleation score of -0.33 ± 0.39.

As to FKTCPKCSSSCCIFICPCSV, the amyloid nucleation score stood at 0.753 ± 0.25.

In the case of RTAMVVDSYAKSFMSQASVL, the amyloid nucleation score result is “inactive”.

In the case of VKTRTIRVSH, the amyloid nucleation score result was “inactive”.

As for ASIGIRFVDCLYSVLRRWMF, the amyloid nucleation score result was “inactive”.

On to GLTFCATRCRDWLEGWQY, for which the amyloid nucleation score entry is “inactive”.

On to NVVSWVNHACGWRDRSATMS, for which the amyloid nucleation score result is “inactive”.

As for VFSKSLGI, the amyloid nucleation score entry is “inactive”.

For the substance YSGGCGWIMSRNSVRYSCIC, the amyloid nucleation score result was “inactive”.

Take CFRPPFTFRYFALARGKAAD: the amyloid nucleation score result was “inactive”.

For the substance NALTNSVKLFVLQTIVVYMR, the amyloid nucleation score entry was “inactive”.

As for YSRPMVTL, the amyloid nucleation score entry is “inactive”.

EMTGTYEVCFMT: the amyloid nucleation score result was “inactive”.

Turning to IFVWYMNVSCGMVDRYGLPM, the amyloid nucleation score entry is “inactive”.

In the case of APKVQGDCRNTGCAPMVHKK, the amyloid nucleation score result was “inactive”.

Turning to EPQYDSYTGGVSAFVVLKEH, the amyloid nucleation score entry was “inactive”.

For the substance GEYFCRNLNHID, the amyloid nucleation score entry was “inactive”.

As for GTGMCCLIVSLVFLPLCDIA, the amyloid nucleation score entry is “inactive”.

Consider RHNVRCYCLGLMPNAPVDKL, for which the amyloid nucleation score result is “inactive”.

For the substance TISGLNM, the amyloid nucleation score result was “inactive”.

On to VQYNHLRVVSHDVNENGEPR, for which the amyloid nucleation score entry was “inactive”.

In turn, IFVLVYNISSNTGNYSIGFV yielded an amyloid nucleation score of 0.934 ± 0.15.

GKARQSLHIGSSLLTFMA: the amyloid nucleation score entry is “inactive”.

Turning to WCAVMPFRSVTSNVIFDLSV, the amyloid nucleation score entry is “inactive”.

With IYCVNSSAFVLEPF, the amyloid nucleation score result was “inactive”.

For TSRTGRMEYISRELGQRVWM, the amyloid nucleation score result is “inactive”.

As to DGFIWAQGLTLIFMRSNMKR, the amyloid nucleation score stood at 2.42 ± 0.055.

Take SFWCRVSHLSRDTFMDVRFM: the amyloid nucleation score result is “inactive”.

As to YIYSVEEYSRTSLIDDSVGW, the amyloid nucleation score result is “inactive”.

As to CEQQSRYHMKFMPASLLSFK, the amyloid nucleation score result was “inactive”.

For the substance PIGGLEFNMGFRYRVIRVTM, the amyloid nucleation score was -0.436 ± 1.7.

For TCGINYRGYEDPRPCRGTEI, the amyloid nucleation score result is “inactive”.

On to SRSPNFQKFLHCMTTSN, for which the amyloid nucleation score entry is “inactive”.

For THEHMRHC, the amyloid nucleation score entry was “inactive”.

With RILFDAARRIRWTVMCTKSC, the amyloid nucleation score entry was “inactive”.

In turn, NIDNMSMVRILFNT returned an amyloid nucleation score of 1.44 ± 0.11.

LRSSYQNLDPSVCQQFHLGE gave an amyloid nucleation score of -0.075 ± 0.66.

Take VWSTGRLLRGKSWELISNDT: the amyloid nucleation score result was “inactive”.

For VLDLCDVY, the amyloid nucleation score result is “inactive”.

Regarding CSNWLWWYYYVRMYRSVRFS, the amyloid nucleation score was -0.368 ± 0.64.

In turn, ILSSKSTNENVSYFLLKM came in with an amyloid nucleation score of 0.794 ± 0.099.

Consider FFVFVR, for which the amyloid nucleation score stood at 1.3 ± 0.15.

With VKNFLGY, the amyloid nucleation score result is “inactive”.

Substance YNDGVCIILFNLPFVCRRST had an amyloid nucleation score of 2.85 ± 0.05.

As to MYTISVKAMNGWYLSLKVGC, the amyloid nucleation score result is “inactive”.

In the case of YPCEVLGCDAN, the amyloid nucleation score result was “inactive”.

KGTSR: the amyloid nucleation score result was “inactive”.

For the substance AVRFNHAYISQKPQRMLL, the amyloid nucleation score entry is “inactive”.

As for TGSDAYSMRMPRQPPISFVV, the amyloid nucleation score result was “inactive”.

On to RSLDD, for which the amyloid nucleation score entry was “inactive”.

Take LLNSM: the amyloid nucleation score result was “inactive”.

SHRGDAVLVFCLVCLVILDG: the amyloid nucleation score result was “inactive”.

On to NIIYRVGSQYSL, for which the amyloid nucleation score result is “inactive”.

GVIFEISVSCVQTFCPFHYL came in with an amyloid nucleation score of 1.21 ± 0.093.

SAIPKGKATITFPPLKSFVR displayed an amyloid nucleation score of 1.02 ± 0.13.

With MVKDCITRVYFVVWFDYSRS, the amyloid nucleation score result is “inactive”.

For KAVLWFGDIWRQVG, the amyloid nucleation score entry was “inactive”.

For KMDQYCWGFFVSWYMRKKVF, the amyloid nucleation score entry was “inactive”.

For the substance SYINHTIPRVLWAITLRYLI, the amyloid nucleation score entry was “inactive”.

In the case of TVPVSSCGGLRNEPHDVRFG, the amyloid nucleation score entry is “inactive”.

Consider MSTLVTMYHYGVGGCVWFYL, for which the amyloid nucleation score result was “inactive”.

On to GNMLSPI, for which the amyloid nucleation score entry was “inactive”.

Turning to TLYCRYFG, the amyloid nucleation score was 1.01 ± 0.23.

For LHHFSAIPH, the amyloid nucleation score result was “inactive”.

With SFCMCGGLLVRSYRSFRFVR, the amyloid nucleation score entry is “inactive”.

Take ATDKV: the amyloid nucleation score result is “inactive”.

Turning to LSWRRCA, the amyloid nucleation score result was “inactive”.

YSLSINCMFRYRSFSDFIDN yielded an amyloid nucleation score of 0.992 ± 0.2.

TIFECRRASFNVSVEMGR: the amyloid nucleation score entry was “inactive”.

GCSTINALCGHLDVVVCIAG gave an amyloid nucleation score of 1.64 ± 0.094.

For HNISAIYDRNRF, the amyloid nucleation score result is “inactive”.

Regarding YFENLVEVRQIATFKTV, the amyloid nucleation score entry is “inactive”.

In the case of RAPRVVIGCSMYMGMFSELE, the amyloid nucleation score amounted to 0.772 ± 0.14.

For FMLNVVDY, the amyloid nucleation score entry was “inactive”.

For the substance TIWSITFLGCKLELTEKCLV, the amyloid nucleation score is 0.979 ± 0.24.

Consider YISFVFDRYNKSYGTARICK, for which the amyloid nucleation score is -0.506 ± 0.82.

Take EDVSSNIRWRHTGKGETVVM: the amyloid nucleation score entry is “inactive”.

As to DLFKMRLGTERGY, the amyloid nucleation score result is “inactive”.

As to QRVLY, the amyloid nucleation score stood at 0.864 ± 0.15.

Consider DRNRCIVYTHGEISRLQ, for which the amyloid nucleation score result is “inactive”.

Consider NSVPRGMAFFLNAFFSLIYY, for which the amyloid nucleation score entry was “inactive”.

As for CLPSFRGFTTNIMGLIRSRV, the amyloid nucleation score result is “inactive”.

For the substance TDVYHQNAQYHRVYNLQGRV, the amyloid nucleation score result was “inactive”.

As for TSGWEFRRFPNFQLLILSCF, the amyloid nucleation score result is “inactive”.

With YYLCYLSVHLSMIGCKEKGR, the amyloid nucleation score entry is “inactive”.

Turning to QIRAIMYVFGISVSAVLGAK, the amyloid nucleation score was -0.19 ± 0.49.

IVRYTHSSLVYFTDEMMVNR showed an amyloid nucleation score of 1.19 ± 0.12.

For the substance NCDNSNGYSTHEIEDRSTLR, the amyloid nucleation score result is “inactive”.

As to IHFNWLIYITNTYVRRIFRC, the amyloid nucleation score entry is “inactive”.

Turning to GFPPCSTRTIQLTWHSSNV, the amyloid nucleation score stood at 0.37 ± 0.17.

LPIQVSFVMVRWGSMFMFRN: the amyloid nucleation score entry is “inactive”.

For the substance VRLNALIHDIVMMVWGTMHG, the amyloid nucleation score entry is “inactive”.

Consider AFGLTVFE, for which the amyloid nucleation score entry was “inactive”.

For MCVYITYLNLWSDNSLRDRT, the amyloid nucleation score stood at 2.23 ± 0.061.

As to QHYLVYY, the amyloid nucleation score result is “inactive”.

Take SLTSWGRMMSWVPCSKELRQ: the amyloid nucleation score result was “inactive”.

As for VGEVGGYGEFAE, the amyloid nucleation score result was “inactive”.

Take DNLFSETSYVVRFARFL: the amyloid nucleation score result is “inactive”.

With AQTYSMCFNITKHPYNSMCG, the amyloid nucleation score result is “inactive”.

Regarding FSWRCCFHKNNDCAKTILMF, the amyloid nucleation score result was “inactive”.

Turning to YKVILTCSKC, the amyloid nucleation score result was “inactive”.

These data come from the supplement of paper PMC12042874.
